Results published in publication PMC8160216.

Molecular target: human M3R-mCit (muscarinic M3 receptor, C-terminally mCitrine-labeled) (human) (UniProt P20309)
Assay: FRET or BRET; single permeabilized HEK293T cells (saponin), nucleotides washed out; FRET between M3R-mCitrine and mTurquoise2-Gγ2 of the co-expressed G protein; 10 µM acetylcholine for 1 min, 2 min washout, twice; final GTPγS to induce full dissociation; stability of the complex as AUC of the normalized trace after agonist withdrawal; room temperature, internal buffer pH 7.35

UniProt P20309, sequence (P20309 whole entry): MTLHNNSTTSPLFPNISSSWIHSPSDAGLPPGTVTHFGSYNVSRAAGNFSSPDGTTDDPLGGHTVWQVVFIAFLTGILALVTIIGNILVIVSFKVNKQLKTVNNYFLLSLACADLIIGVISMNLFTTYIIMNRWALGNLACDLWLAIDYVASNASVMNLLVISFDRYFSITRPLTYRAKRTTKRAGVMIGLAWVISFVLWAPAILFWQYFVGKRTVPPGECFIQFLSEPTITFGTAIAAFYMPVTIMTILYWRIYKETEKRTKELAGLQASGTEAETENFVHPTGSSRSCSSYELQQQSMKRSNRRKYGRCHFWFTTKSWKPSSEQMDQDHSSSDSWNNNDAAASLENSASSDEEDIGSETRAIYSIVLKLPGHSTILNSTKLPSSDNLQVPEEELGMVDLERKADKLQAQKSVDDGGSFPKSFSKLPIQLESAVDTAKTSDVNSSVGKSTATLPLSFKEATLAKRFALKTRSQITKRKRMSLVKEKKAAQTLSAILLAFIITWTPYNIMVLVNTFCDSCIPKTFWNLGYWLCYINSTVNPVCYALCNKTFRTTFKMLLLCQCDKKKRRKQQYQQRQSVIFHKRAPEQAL

GqoN + C11 (Gαq chimera with the N-terminus and the last 11 amino acids of Gαo, with Gβ1 and mTurq2-Gγ2) (from UniProt P59215 344-354; P62873 1-340; P63212 1-71) (complex)
faster dissociation relative to Gq: < 10%

GqoC11 (Gαq chimera with the C-terminal part of the α5 helix of Gαo, with Gβ1 and mTurq2-Gγ2) (from UniProt P21279 1-348; P59215 344-354; P62873 1-340; P63212 1-71) (complex)
reduction of the AUC of dissociation relative to Gq: < 5%
